For experiment [1], the target named is T1, soluble PDGFRβ (Fc or His format not stated for the experiment) (human, UniProt P09619 33-532).
T1 construct: extracellular domain
As to the kind of experiment: yeast surface display, flow cytometry titration of soluble receptor; panel 'PDGFR binding', Fc or His form not given.

Experiment [2] deals with T2, VEGFR2-His (residues 1-764 of VEGFR2, Ig-like domains 1-7, with hexahistidine tag) (human, UniProt P35968 20-764).
T2 construct: range 1-764; Monomeric form, expressed in FreeStyle 293-F cells; also called VEGFR-His
T2 sequence (P35968 other isoform, or with tags, fused parts or gaps limits assumed, form in doubt): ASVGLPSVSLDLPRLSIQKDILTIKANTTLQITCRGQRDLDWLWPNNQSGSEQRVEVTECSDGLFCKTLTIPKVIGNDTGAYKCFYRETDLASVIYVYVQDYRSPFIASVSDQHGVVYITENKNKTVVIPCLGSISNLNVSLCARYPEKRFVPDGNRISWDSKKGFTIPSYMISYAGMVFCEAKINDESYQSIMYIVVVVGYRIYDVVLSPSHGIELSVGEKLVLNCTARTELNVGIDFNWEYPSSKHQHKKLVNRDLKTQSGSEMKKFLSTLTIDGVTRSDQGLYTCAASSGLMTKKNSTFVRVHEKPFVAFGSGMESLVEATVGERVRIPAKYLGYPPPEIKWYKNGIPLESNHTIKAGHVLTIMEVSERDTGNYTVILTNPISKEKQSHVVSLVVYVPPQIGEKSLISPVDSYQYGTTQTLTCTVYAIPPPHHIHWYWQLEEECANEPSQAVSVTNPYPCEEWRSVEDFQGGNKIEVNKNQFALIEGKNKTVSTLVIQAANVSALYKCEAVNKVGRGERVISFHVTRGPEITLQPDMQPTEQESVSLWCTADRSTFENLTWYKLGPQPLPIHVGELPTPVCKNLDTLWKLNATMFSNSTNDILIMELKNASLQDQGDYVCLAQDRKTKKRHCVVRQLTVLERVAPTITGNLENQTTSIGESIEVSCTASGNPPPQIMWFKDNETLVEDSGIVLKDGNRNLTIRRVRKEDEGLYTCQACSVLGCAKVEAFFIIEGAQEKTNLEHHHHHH
As to the kind of experiment: yeast surface display, flow cytometry equilibrium titration of VEGFR2-His, normalized fluorescence. The protocol: (§1) Cells were incubated in large enough volumes to avoid ligand depletion and appropriate time to reach equilibrium. During the last hour of incubation, yeast were incubated with 1:250 dilution of chicken anti-c-Myc (Invitrogen) in PBSA. […] Yeast were washed, pelleted, and resuspended in PBSA immediately before analysis by flow cytometry using BD FACSCalibur or BD Accuri C6. Flow cytometry data were analyzed using FlowJo (v7.6.1 and v10, Treestar) or BD Accuri C6 software. Statistical analysis was performed using GraphPad Prism 6.

The target in experiment [3] is T1, soluble PDGFRβ (Fc or His format not …). As to the kind of experiment: binding titration (FIG. 12); taken as yeast display, receptor format not stated; to PDGFR; receptor format not stated.
For experiment [4], the target named is T3, PDGFRβ-His (residues 1-314 of PDGFR-β with C-terminal hexahistidine tag) (human, UniProt P09619 33-314).
T3 construct: range 1-314; Monovalent form, expressed in FreeStyle 293-F cells; also called PDGRβ-His; PDGFR-His
T3 sequence (P09619 other isoform, or with tags, fused parts or gaps limits assumed, form in doubt): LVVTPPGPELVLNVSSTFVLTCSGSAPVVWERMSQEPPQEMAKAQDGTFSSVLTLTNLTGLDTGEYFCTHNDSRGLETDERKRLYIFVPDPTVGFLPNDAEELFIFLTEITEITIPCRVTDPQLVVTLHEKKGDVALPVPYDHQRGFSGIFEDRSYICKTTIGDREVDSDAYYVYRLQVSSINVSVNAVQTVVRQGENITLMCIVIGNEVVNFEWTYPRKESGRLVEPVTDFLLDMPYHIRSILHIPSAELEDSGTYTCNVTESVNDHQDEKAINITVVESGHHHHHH
As to the kind of experiment: yeast surface display, flow cytometry titration of PDGFRβ-His (panel 'PDGFRβ binding'). The procedure: as §1

Experiment [5] concerns the target T4, soluble VEGFR2 (Fc or His format not stated for the experiment) (human, UniProt P35968 20-764).
T4 construct: extracellular domain
As to the kind of experiment: binding titration (FIG. 12); taken as yeast display, receptor format not stated; to VEGFR; receptor format not stated.

For experiment [6], the target named is T3, PDGFRβ-His (residues 1-314 of PDGFR-β …). As to the kind of experiment: yeast surface display titration, flow cytometry.
The target of experiment [7] is T2, VEGFR2-His (residues 1-764 of VEGFR2, …). As to the kind of experiment: yeast surface display titration, flow cytometry.
Experiment [8] addresses T3, PDGFRβ-His (residues 1-314 of PDGFR-β …). As to the kind of experiment: yeast surface display titration, flow cytometry. The procedure: as §1
This is another data set of the same source.

Experiment [9] concerns the target T2, VEGFR2-His (residues 1-764 of VEGFR2, …). As to the kind of experiment: yeast surface display titration, flow cytometry. The procedure:
as §1
The source holds these as a separate data set.

Experiment [10] deals with T3, PDGFRβ-His (residues 1-314 of PDGFR-β …). As to the kind of experiment: yeast surface display titration, flow cytometry. The procedure: as §1
The source holds these as a separate data set.

In experiment [11] the target is T2, VEGFR2-His (residues 1-764 of VEGFR2, …). As to the kind of experiment: yeast surface display titration, flow cytometry. The procedure:
as §1
This is another data set of the same source.

Experiment [12] deals with T3, PDGFRβ-His (residues 1-314 of PDGFR-β …). As to the kind of experiment: yeast surface display, flow cytometry equilibrium titration of PDGFRβ-His (panel 'PDGFR-His'), normalized fluorescence. The procedure: as §1
Experiment [13] deals with T5, PDGFRβ-Fc (residues 1-314 of PDGFR-β fused to the Fc region of mouse IgG2a) (human; mouse, UniProt P09619 33-314).
T5 construct: range 1-314; Expressed in FreeStyle 293-F cells; also called PDGRβ-Fc; PDGFR-Fc; not shown: Fc region of mouse IgG2a
T5 sequence (P09619 33-314 limits assumed, form in doubt): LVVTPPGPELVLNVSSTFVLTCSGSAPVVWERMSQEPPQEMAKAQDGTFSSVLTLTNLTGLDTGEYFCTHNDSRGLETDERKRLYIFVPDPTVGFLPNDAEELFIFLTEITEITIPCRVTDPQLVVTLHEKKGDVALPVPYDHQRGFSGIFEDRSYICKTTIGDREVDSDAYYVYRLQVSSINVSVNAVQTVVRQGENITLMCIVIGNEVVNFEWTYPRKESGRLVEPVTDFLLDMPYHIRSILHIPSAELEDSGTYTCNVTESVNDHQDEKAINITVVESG
As to the kind of experiment: yeast surface display titration; PDGF taken as yeast-displayed scPDGF.

The target of experiment [14] is T3, PDGFRβ-His (residues 1-314 of PDGFR-β …). As to the kind of experiment: titration on yeast-displayed scPDGF, flow cytometry, anti-His. The procedure:
as §1
(§2) Bound protein was detected using fluorescently-labeled anti-His and anti-mouse-Fc antibodies.

Experiment [15] deals with T5, PDGFRβ-Fc (residues 1-314 of PDGFR-β …). As to the kind of experiment: titration on yeast-displayed scPDGF, flow cytometry, anti-mouse-Fc. The protocol: as §1, §2

Data on two molecules can be found in patent publication US20180111972A1 (Stanford University, published 2018).

Where two headings read alike, the source gives them in different places.

T1 sequence (P09619 33-532): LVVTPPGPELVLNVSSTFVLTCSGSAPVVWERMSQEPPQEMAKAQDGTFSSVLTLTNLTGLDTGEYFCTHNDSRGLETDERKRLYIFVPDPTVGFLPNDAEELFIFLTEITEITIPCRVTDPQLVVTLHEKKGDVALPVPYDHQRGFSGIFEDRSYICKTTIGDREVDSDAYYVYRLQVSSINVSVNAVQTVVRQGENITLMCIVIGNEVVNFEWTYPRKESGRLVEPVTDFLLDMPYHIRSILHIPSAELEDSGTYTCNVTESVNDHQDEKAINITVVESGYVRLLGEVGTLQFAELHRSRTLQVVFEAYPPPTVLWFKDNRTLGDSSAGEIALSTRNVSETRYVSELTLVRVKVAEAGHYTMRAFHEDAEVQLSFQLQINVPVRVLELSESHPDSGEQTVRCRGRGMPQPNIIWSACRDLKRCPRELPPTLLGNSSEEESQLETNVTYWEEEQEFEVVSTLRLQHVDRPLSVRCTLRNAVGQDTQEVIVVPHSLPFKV
T4 sequence (P35968 20-764): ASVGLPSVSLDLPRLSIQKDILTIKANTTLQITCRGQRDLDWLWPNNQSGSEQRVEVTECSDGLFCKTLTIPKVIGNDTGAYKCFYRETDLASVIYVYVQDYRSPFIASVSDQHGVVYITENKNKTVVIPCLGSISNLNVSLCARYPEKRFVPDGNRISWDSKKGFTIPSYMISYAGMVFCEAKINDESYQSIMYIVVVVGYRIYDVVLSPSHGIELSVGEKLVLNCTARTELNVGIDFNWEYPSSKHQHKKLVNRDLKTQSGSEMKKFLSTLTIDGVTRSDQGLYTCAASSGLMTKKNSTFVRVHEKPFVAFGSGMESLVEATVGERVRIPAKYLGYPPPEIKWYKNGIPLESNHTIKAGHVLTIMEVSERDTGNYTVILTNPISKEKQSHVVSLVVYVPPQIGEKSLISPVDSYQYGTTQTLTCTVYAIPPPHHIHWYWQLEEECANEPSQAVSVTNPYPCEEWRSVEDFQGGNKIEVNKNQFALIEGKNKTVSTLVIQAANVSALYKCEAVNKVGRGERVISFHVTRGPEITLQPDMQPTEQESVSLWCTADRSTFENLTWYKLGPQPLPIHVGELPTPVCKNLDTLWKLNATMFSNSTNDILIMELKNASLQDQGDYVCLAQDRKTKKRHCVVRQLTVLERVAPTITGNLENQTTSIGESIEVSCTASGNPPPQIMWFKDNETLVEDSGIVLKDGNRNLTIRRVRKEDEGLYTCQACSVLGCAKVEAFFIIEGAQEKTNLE

B1: PVAM (4-22 RF), yeast-displayed (designed binder)
chain: IAEPAMIAECHPIETLVDILQEYPDEIGYIFKPSCVPLMRCGGCCNNRNVQCRPTEESNITMQIMRIKPHRGQHIGEMSFLQHNKCRCETVAAGSTSGSGKSSEGKGEVVKFMDVYQRSYCKTRTEVFEISRRLIDRTNANFLVWPPCVEVQRCSGCCNHEGLECVPTQVQLRPVQVRKIEFVRKKPIFKKATVTLEDHLACECRPKKD
notes: Combines K87R and I182F with F20L, E28G, Q71R and D160H
For B1, the “EC50 (read off the curve)” value was about 0.2 nM in experiment [1], about 1 nM in experiment [2], about 0.3 nM in experiment [4] and about 0.4 nM in experiment [12]. The Kd in [3] is 0.21 nM; in experiment [5], 2.1 nM; in [8], 0.39 nM; in experiment [9] it was 1.1 nM; in experiment [10] it was 0.39 nM; in experiment [11], 1.1 nM. Moreover, the “fold improvement compared to PV6” value in [6] turned out to be 1100 fold; in experiment [7], 200 fold.

B2: scPDGF, yeast-displayed (ligand)
chain: IAEPAMIAECKTRTEVFEISRRLIDRTNANFLVWPPCVEVQRCSGCCNNRNVQCRPTQVQLRPVQVRKIEIVRKKPIFKKATVTLEDHLACKCETVAAGSTSGSGKSSEGKGIAEPAMIAECKTRTEVFEISRRLIDRTNANFLVWPPCVEVQRCSGCCNNRNVQCRPTQVQLRPVQVRKIEIVRKKPIFKKATVTLEDHLACKCETVAA
As for B2, the equilibrium dissociation constant (Kd) is about 0.04 nM in experiment [13], 310 nM in experiment [14] and 0.028 nM in experiment [15].
